The text below walks through data of patent US20250388666A1 (BRIGHAM AND WOMEN S HOSPITAL, published 2025).

For assay [1], the target named is T1, CEACAM5 on transfected HeLa cells (UniProt P06731 35-685).
T1 construct: whole, on cells; also called C5
T1 sequence (looked up): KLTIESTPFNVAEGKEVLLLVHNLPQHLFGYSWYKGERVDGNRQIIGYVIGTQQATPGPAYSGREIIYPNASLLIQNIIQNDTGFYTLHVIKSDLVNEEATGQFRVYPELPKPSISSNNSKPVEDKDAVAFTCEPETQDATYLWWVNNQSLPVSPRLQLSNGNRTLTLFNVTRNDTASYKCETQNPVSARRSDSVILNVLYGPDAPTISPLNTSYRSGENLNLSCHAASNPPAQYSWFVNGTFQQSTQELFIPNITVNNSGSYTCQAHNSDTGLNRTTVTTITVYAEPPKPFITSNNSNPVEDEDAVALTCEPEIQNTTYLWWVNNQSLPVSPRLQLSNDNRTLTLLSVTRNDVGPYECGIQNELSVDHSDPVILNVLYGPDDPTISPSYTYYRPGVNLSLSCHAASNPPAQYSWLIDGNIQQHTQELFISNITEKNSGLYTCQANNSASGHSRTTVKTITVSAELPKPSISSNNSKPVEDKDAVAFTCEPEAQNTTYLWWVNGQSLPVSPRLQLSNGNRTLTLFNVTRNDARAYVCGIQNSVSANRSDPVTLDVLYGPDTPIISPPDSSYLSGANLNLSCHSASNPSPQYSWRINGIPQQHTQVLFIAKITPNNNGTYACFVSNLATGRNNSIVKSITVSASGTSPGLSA
Kind of assay: flow cytometry, transfected HeLa. Here is the method:
(§1) Binding selectivity of the selected antibody variants was assessed by flow cytometry using HeLa cells transfected with vectors expressing CEACAM1, CEACAM5, and CEACAM6, respectively. The resulting cells were used for flow cytometry experiments and were cultured at 37° C., 5.0% CO₂ in Dulbecco's modified Eagle's medium supplemented with 10% fetal bovine serum, penicillin (100 U/ml) and dihydrostreptomycin ([…]). Cell lines were stained with the indicated antibodies followed by fluorochrome-conjugated monoclonal antibody specific for the indicated antibody isotypes such as human IgG4 or mouse IgG1 together with viable dye (DAPI). Data were acquired with a Cytoflex flow cytometer ([…]) and analyzed with FlowJo software (TreeStar, V7.6.5 for Windows).
For orientation: In flow cytometry, cells or beads pass a laser one at a time.

In assay [2] the target is T2, CEACAM1 on transfected HeLa cells (Homo sapiens (Human), UniProt P13688 35-526).
T2 construct: also called C1
T2 sequence: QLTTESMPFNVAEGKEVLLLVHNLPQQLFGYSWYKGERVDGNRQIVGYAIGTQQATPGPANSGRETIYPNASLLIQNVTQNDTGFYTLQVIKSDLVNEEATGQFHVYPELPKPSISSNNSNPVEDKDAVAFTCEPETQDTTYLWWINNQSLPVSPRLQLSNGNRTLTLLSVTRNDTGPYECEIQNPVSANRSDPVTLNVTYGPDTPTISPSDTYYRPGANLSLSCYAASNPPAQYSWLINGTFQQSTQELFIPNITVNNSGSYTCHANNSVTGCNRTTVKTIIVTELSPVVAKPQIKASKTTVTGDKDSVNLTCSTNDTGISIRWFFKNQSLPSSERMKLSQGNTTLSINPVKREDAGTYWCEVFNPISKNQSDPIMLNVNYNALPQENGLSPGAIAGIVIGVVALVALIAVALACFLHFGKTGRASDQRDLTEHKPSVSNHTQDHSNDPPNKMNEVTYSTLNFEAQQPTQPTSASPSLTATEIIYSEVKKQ
Kind of assay: flow cytometry, transfected HeLa. Here is the method: as §1

For assay [3], the target named is T3, CEACAM1 (Sino Biological) (human, UniProt P13688 35-428, limits assumed).
T3 construct: may be the same as CEACAM1-HIS; also called hCEACAM1; biotinylated soluble CEACAM1
T3 sequence: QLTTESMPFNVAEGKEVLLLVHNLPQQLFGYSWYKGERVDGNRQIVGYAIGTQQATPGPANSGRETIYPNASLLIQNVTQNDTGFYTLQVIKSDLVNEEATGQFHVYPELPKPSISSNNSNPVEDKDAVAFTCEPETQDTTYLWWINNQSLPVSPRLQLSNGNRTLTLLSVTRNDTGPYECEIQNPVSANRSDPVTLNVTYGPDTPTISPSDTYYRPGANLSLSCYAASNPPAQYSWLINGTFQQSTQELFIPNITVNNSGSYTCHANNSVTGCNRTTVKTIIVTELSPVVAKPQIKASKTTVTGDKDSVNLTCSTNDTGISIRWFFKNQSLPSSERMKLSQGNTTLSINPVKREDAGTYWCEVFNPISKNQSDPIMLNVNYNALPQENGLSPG
Kind of assay: SPR single-cycle; one of the two experiments; the Parent of the other experiment reads 551 nM (r135).

The target of assay [4] is T4, CEACAM6 (Sino Biological) (human, UniProt P40199 35-320).
T4 construct: also called hCEACAM6
T4 sequence (looked up): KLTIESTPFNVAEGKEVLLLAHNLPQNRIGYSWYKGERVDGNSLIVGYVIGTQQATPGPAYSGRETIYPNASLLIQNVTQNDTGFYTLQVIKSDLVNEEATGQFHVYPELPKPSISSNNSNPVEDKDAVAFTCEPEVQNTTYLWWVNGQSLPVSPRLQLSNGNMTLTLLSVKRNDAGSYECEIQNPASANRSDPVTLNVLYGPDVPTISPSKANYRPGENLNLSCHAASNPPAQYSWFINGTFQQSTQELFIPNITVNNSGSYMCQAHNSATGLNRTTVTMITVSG
Kind of assay: binding ELISA on plate-coated CEACAM (0.5 µg/mL); antibody at 1.67, 0.062 and 0.0069 µg/mL; signal as % of parent IgG on CEACAM1 at 1.67 µg/mL on the same plate. Background: In an ELISA, binding on a coated surface is turned into a signal by an enzyme label.

Assay [5] has as its target T5, CEACAM5 (Sino Biological) (human, UniProt P06731 35-685).
T5 construct: also called hCEACAM5
T5 sequence (looked up): T1 sequence (looked up)
Described as above.

B1: chimeric parental antibody VH0/Vκ0 (antibody, IgG4, V domains shown)
VH: EVQLVESGGGFVKPGGSLKLSCAASGFSFSDYYLYWVRQTPEKRLEWVATISVGGGNTSYPDSVKGRFTISRDNAKNNLYLQMSSLKSEDTAMYYCTRGLYYGPAWFAYWGQGTLVTVSA
VL: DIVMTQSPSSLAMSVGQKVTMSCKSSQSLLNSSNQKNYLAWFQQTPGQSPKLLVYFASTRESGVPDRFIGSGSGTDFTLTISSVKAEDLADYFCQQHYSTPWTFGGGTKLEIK
notes: IgG4 (S241P), kappa; also called Chimera; chimeric antibody
For B1, the relative fluorescence intensity is 0.42 in assay [1] and 84.2 in assay [2].

B2: VH2 N56Q/Vκ4 S27(f)A IgG (antibody, V domains shown)
VH: EVQLLESGGGLVQPGGSLRLSCAASGFSFSDYYLYWVRQAPGKGLEWVATISVGGGQTSYADSVKGRFTISRDNSKNTLYLQMNSLRAEDTAMYYCTRGLYYGPAWFAYWGQGTLVTVSS
VL: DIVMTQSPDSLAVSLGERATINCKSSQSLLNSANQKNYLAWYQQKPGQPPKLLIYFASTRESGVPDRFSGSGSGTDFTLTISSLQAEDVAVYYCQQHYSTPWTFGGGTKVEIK
notes: IgG4 S241P, kappa; also called Parent; Parent IgG
In general, Kd refers to the concentration at which binding is half-saturated. With B2, the Kd in assay [3] was determined as 159 nM. The binding result in assay [4] and in assay [5] was “no binding (tested: 1.67 µg/mL)” in each case. Besides, the relative fluorescence intensity in assay [1] is 0; in assay [2] it was 89.3.
